The target of the test is human IGF1R on transfected CHO cells (human), P08069. Description: flow cytometry, IGFBP7-Ig on IGF1R transfected CHO cells (CHO-WT: 3.52). The settings on record: remark: other sources report otherwise. On the technique in general: Flow cytometry measures light scatter and fluorescence of single cells or particles in a stream.
Sequence of human IGF1R on transfected CHO cells (human), P08069 (P08069 31-1367): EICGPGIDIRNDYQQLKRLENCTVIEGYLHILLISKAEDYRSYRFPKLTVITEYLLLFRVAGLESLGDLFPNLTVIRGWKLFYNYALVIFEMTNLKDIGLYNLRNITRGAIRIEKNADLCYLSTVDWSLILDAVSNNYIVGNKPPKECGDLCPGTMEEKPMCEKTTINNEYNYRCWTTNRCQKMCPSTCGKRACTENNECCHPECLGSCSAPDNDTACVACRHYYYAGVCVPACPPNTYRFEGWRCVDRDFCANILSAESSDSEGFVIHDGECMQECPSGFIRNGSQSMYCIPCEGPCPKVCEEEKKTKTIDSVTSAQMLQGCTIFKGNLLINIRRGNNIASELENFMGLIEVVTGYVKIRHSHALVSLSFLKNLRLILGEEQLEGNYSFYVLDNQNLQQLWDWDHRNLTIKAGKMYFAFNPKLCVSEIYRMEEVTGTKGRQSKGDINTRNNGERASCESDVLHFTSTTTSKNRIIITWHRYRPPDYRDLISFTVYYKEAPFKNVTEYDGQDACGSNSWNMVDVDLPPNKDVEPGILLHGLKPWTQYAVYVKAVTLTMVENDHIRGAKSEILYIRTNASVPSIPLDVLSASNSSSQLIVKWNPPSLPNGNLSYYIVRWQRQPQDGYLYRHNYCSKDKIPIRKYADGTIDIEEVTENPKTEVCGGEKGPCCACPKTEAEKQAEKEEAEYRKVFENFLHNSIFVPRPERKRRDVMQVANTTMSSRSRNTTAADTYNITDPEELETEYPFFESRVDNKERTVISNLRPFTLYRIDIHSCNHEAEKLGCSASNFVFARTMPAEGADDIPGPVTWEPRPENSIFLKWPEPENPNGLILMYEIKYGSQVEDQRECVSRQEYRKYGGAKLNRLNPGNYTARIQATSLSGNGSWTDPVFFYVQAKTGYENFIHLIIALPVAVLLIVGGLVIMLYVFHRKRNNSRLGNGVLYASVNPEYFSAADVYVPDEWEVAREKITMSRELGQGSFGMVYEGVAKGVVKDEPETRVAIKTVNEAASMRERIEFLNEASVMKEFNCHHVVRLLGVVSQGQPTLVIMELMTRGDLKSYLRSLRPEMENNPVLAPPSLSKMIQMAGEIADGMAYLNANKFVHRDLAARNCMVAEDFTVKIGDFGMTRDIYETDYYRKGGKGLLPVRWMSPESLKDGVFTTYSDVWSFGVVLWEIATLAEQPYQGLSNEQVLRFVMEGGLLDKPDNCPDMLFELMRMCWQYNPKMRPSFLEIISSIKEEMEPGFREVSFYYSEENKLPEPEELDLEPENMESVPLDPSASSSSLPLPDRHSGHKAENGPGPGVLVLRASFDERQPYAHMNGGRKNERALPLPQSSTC

B1: Human IGFBP7 (Fc-tag), Sino Biological, Q16270 27-282 (Fc fusion, not shown: a dimerising Fc or GST)
chain: SSSDTCGPCEPASCPPLPPLGCLLGETRDACGCCPMCARGEGEPCGGGGAGRGYCAPGMECVKSRKRRKGKAGAAAGGPGVSGVCVCKSRYPVCGSDGTTYPSGCQLRAASQRAESRGEKAITQVSKGTCEQGPSIVTPPKDIWNVTGAQVYLSCEVIGIPTPVLIWNKVKRGHYGVQRTELLPGDRDNLAIQTRGGPEKHEVTGWVLVSPLSKEDAGEYECHASNSQGQASASAKITVVDALHEIPVKKGEGAEL
B1: the number printed above the gate of the dot plot (share of cells in the gate; unit not given) worked out at 2.04.

Values taken from patent publication US20220235136A1, “METHODS AND COMPOSITIONS FOR TREATING A DISEASE OR DISORDER” (YALE UNIVERSITY, priority 2019, published 2022).
